Laboratory results reported in paper doi:10.1101/380220 (bioRxiv, 2019).
Where two headings read alike, the source gives them in different places.

T1: GTP-loaded Ras1.G17V (1-172) (fission yeast (Schizosaccharomyces …, UniProt P08647 1-172, G17V))
T1 sequence (looked up): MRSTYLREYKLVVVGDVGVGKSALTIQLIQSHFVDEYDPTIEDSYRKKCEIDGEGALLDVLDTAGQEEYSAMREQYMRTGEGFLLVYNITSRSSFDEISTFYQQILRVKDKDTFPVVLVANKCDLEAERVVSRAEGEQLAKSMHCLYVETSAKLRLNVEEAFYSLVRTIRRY


How the values were obtained:
[1] = target: T1, GTP-loaded Ras1.G17V (1-172); experiment: pull-down
[2] = target: T1, GTP-loaded Ras1.G17V (1-172); experiment: pull-down; remark: listed apart in the source

Binder	binding result [1]	binding result [2]
GST-Byr2 (65-180) (domain or fragment, UniProt P28829 65-180, looked up) REFPRPCILRFIACNGQTRAVQSRGDYQKTLAIALKKFSLEDASKFIVCVSQSSRIKLITEEEFKQICFNSSSPERDRLIIVPKEKPCPSFEDLRRSWEIELAQPAALSSQSSLSP	binds	–
GST-Scd1 (760-872) (domain or fragment, UniProt P40995 760-872, looked up) SSSTSTSLSVRNTTNVKIRLRLHEVSLVLVVAHDITFDELLAKVEHKIKLCGILKQAVPFRVRLKYVDEDGDFITITSDEDVLMAFETCTFELMDPVHNKGMDTVSLHVVVYF	binds	–
Scd1 (760-872) fragment (domain or fragment, UniProt P40995 760-872, looked up) SSSTSTSLSVRNTTNVKIRLRLHEVSLVLVVAHDITFDELLAKVEHKIKLCGILKQAVPFRVRLKYVDEDGDFITITSDEDVLMAFETCTFELMDPVHNKGMDTVSLHVVVYF	–	binds
